Measurements: patent US20120058906A1 (published 2012)
Each block holds one binder with its values, some of them ahead of it.

Assays:
[1] = biological target: T1, rHuman CD44/Fc Chimera, CF (R&D Systems Cat#3660-CD) (human, UniProt P16070 21-220); test: MSD ECL multi-spot plate, antigen immobilized; Fab 8 nM; blank spot 489
T1 construct: Purchased Fc chimera; not shown: Fc portion of the purchased chimera

[2] = biological target: T2, rHuman P-Cadherin/Fc Chimera, CF (R&D Systems Cat#861-PC) (human, UniProt P22223 108-654); test: as above
T2 construct: Purchased Fc chimera; not shown: Fc portion of the purchased chimera

[3] = biological target: T3, rHuman EGF R/Fc Chimera, CF (R&D Systems Cat#344-ER) (human, UniProt P00533 25-645); test: as above
T3 construct: Purchased Fc chimera; not shown: Fc portion of the purchased chimera

[4] = biological target: T4, rHuman Erythropoietin R/Fc Chimera, CF (R&D Systems Cat#963-ER) (human, UniProt P19235 25-250); test: as above
T4 construct: Purchased Fc chimera; also called EPO R/Fc; Epo R; not shown: Fc portion of the purchased chimera
T4 sequence: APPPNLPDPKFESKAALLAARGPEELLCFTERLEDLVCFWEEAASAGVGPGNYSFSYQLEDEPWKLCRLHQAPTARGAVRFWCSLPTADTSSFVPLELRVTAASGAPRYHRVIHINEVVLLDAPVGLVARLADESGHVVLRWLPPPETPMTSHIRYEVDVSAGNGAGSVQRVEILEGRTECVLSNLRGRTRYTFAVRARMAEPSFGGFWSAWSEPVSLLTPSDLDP

[5] = biological target: T5, rHuman HGF R/c-MET/Fc Chimera, CF (R&D Systems Cat#358-MT/CF) (human, UniProt P08581 25-932); test: as above
T5 construct: Purchased Fc chimera; also called HGF R/Fc; not shown: Fc portion of the purchased chimera

[6] = biological target: T6, rHuman IGF-1 sR (IGF-1 sR), CF (R&D Systems Cat#391-GR) (human, UniProt P08069 31-932); test: as above
T6 construct: Purchased soluble receptor; also called insulin-like growth factor-1 soluble receptor; IGF-R1

[7] = biological target: T7, rHuman ErbB2/Fc Chimera, CF (R&D Systems Cat#1129-ER) (human, UniProt P04626 23-652); test: as above
T7 construct: Purchased Fc chimera; also called HER2/neu; not shown: Fc portion of the purchased chimera

[8] = biological target: T8, rHuman Notch-1/Fc Chimera, CF (R&D Systems Cat#3647-TK) (human, UniProt P46531 19-526); test: as above
T8 construct: Purchased Fc chimera; not shown: Fc portion of the purchased chimera

[9] = biological target: T9, Recombinant Human DLL4 (R&D Systems Cat#1506-D4/CF) (human, UniProt Q9NR61 27-524); test: as above
T9 construct: Purchased recombinant protein; also called delta-like protein 4

[10] = biological target: T10, Recombinant Human DLL4 (R&D Systems Cat#1506-D4/CF) (human, UniProt Q9NR61 27-524); test: MSD ECL titration, Fab 2383 nM, blank 344
T10 construct: Bought recombinant protein; also called rHuman DLL4; delta-like protein 4

[11] = biological target: T11, rHuman HGF R/c-MET/Fc Chimera, CF (R&D Systems Cat#358-MT/CF) (human, UniProt P08581 25-932); test: MSD ECL titration, Fab 2383 nM, blank 344
T11 construct: Bought Fc chimera; also called HGF R/Fc; Fc part of the bought chimera not given

[12] = biological target: T12, rHuman Erythropoietin R/Fc Chimera, CF (R&D Systems Cat#963-ER) (human, UniProt P19235 25-250); test: MSD ECL titration, Fab 2383 nM, blank 344
T12 construct: Bought Fc chimera; also called EPO R/Fc; EPOR; Fc part of the bought chimera not given
T12 sequence: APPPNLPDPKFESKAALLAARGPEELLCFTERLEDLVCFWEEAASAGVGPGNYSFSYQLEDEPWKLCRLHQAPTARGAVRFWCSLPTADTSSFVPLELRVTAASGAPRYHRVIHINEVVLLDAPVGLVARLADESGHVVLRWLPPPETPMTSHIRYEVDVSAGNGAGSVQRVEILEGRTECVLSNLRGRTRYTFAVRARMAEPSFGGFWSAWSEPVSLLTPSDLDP

[13] = biological target: T13, rHuman P-Cadherin/Fc Chimera, CF (R&D Systems Cat#861-PC) (human, UniProt P22223 108-654); test: MSD ECL titration, Fab 2383 nM, blank 344
T13 construct: Bought Fc chimera; Fc part of the bought chimera not given

[14] = biological target: T14, rHuman EGF R/Fc Chimera, CF (R&D Systems Cat#344-ER) (human, UniProt P00533 25-645); test: MSD ECL titration, Fab 2383 nM, blank 344
T14 construct: Bought Fc chimera; Fc part of the bought chimera not given

[15] = biological target: T15, rHuman IGF-1 sR, (IGF-1 sR), CF (R&D Systems Cat#391-GR) (human, UniProt P08069 31-932); test: MSD ECL multi-spot plate; Fab 8.1 nM; blank spot 435
T15 construct: also called insulin-like growth factor-1 soluble receptor; IGF-R1

[16] = biological target: T16, rHuman CD44/Fc Chimera, CF (R&D Systems Cat#3660-CD) (human, UniProt P16070 21-220); test: as above
T16 construct: Fc part of the bought chimera not given

[17] = biological target: T17, rHuman HGF R/c-MET/Fc Chimera, CF (R&D Systems Cat#358-MT/CF) (human, UniProt P08581 25-932); test: as above
T17 construct: also called HGF R/Fc; hepatocyte growth factor receptor; Fc part of the bought chimera not given

[18] = biological target: T18, rHuman Erythropoietin R/Fc Chimera, CF (R&D Systems Cat#963-ER) (human, UniProt P19235 25-250); test: as above
T18 construct: also called EPO R/Fc; Epo R; Fc part of the bought chimera not given
T18 sequence: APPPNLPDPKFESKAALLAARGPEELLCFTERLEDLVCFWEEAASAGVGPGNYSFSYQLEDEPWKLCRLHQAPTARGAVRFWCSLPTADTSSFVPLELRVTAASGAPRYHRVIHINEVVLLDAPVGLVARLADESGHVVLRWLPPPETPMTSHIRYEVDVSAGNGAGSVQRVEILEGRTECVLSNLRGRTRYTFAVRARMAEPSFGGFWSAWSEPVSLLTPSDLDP

[19] = biological target: T19, rHuman ErbB2/Fc Chimera, CF (R&D Systems Cat#1129-ER) (human, UniProt P04626 23-652); test: as above
T19 construct: also called HER2/neu; human epidermal growth factor 2 receptor; Fc part of the bought chimera not given
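Note: blank spot per well as comparator with Hit at signal to blank ratio of 4 or more.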

ECL signal [1]: 853 ECL signal
ECL signal [2]: 788 ECL signal
ECL signal [3]: 1030 ECL signal
ECL signal [4]: 881 ECL signal
ECL signal [5]: 1260 ECL signal
ECL signal [6]: 1200 ECL signal
ECL signal [7]: 1230 ECL signal
ECL signal [8]: 831 ECL signal
ECL signal [9]: 11400 ECL signal
B1: Fab VH5-51_IGHD5-18*01>3_IGHJ4*01_G100K & V3-4_IGLJ1*01 (Fab, V domains shown)
VH: EVQLVQSGAEVKKPGESLKISCKGSGYSFTSYWIGWVRQMPGKGLEWMGIIYPGDSDTRYSPSFQGQVTISADKSISTAYLQWSSLKASDTAMYYCARRKYSYGYDYFDYWGQGTLVTVSS
VL: QTVVTQEPSFSVSPGGTVTLTCGLSSGSVSTSYYPSWYQQTPGQAPRTLIYSTNTRSSGVPDRFSGSILGNKAALTITGAQADDESDYYCVLYMGSGISYVFGTGTKVTVL
notes: It was expressed as a Fab: CH1 with tags from Plasmid A and lambda CL from Plasmid E; also called Fab No. 22

ECL signal [10]: 11800
ECL signal [11]: 762
ECL signal [12]: 658
ECL signal [13]: 728
ECL signal [14]: 621
B2: Fab VH1-46_IGHD6-6*01_IGHJ1*01 & L6_IGKJ1*01 (Fab, V domains shown)
VH: QVQLVQSGAEVKKPGASVKVSCKASGYTFTSYYMHWVRQAPGQGLEWMGIINPSGGSTSYAQKFQGRVTMTRDTSTSTVYMELSSLRSEDTAVYYCAREEYSSSSAEYFQHWGQGTLVTVSS
VL: not shown
notes: Expressed in E. coli as Fab: heavy chain with CH1 plus Flag and His tags from Plasmid A, kappa light chain constant region from Plasmid C; also called Fab No. 1

ECL signal [15]: 518 ECL signal
ECL signal [16]: 528 ECL signal
ECL signal [17]: 551 ECL signal
ECL signal [18]: 660 ECL signal
ECL signal [19]: 557 ECL signal
B3: Fab VH1-8_IGHD2-2*01_IGHJ6*01 & L12_IGKJ1*01 (Fab, V domains shown)
VH: QVQLVQSGAEVKKPGASVKVSCKASGYTFTSYDINWVRQATGQGLEWMGWMNPNSGNTGYAQKFQGRVTMTRNTSISTAYMELSSLRSEDTAVYYCARGGYCSSTSCYADYYYYYGMDVWGQGTTVTVSS
VL: not shown
